Laboratory results taken from patent publication US20070196883.

What was measured:
[1] = biological target: GST-PIF (glutathione-S-transferase fusion of the C-terminal 77 amino acids of PRK2)
[2] = biological target: GST-PIF mutant Asp978 to Ala
[3] = biological target: GST-PIF mutant Asp978 to Ser
[4] = biological target: GST-PIF mutant F974 to Ala
[5] = biological target: GST-PIF mutant F977 to Ala
[6] = biological target: GST-PIF mutant Y979 to Ala
D978A-Region B peptide = biological target: T1, D978A-Region B peptide
T1 chain: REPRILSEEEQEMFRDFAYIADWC

[7] = biological target: T2, Region B peptide (24 residue synthetic peptide corresponding to Region B of PIF)
T2 chain: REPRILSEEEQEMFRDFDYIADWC

GST-PIF mutant Y979 to Ala, sequence (chain, as listed by the source mutant): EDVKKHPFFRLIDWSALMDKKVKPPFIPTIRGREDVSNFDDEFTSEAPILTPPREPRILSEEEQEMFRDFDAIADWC
GST-PIF mutant Asp978 to Ser, sequence (chain, as listed by the source mutant): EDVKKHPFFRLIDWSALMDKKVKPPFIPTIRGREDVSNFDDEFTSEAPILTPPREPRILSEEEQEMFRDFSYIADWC
GST-PIF mutant F977 to Ala, sequence (chain, as listed by the source mutant): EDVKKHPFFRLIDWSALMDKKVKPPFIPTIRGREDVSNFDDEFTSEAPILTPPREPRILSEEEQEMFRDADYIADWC
GST-PIF mutant F974 to Ala, sequence (chain, as listed by the source mutant): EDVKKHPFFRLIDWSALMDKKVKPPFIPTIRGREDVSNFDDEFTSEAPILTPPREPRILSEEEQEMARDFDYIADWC

B1: endogenous PDK1 of 293 cells (protein)
chain: MARTTSQLYDAVPIQSSVVLCSCPSPSMVRTQTESSTPPGIPGGSRQGPAMDGTAAEPRPGAGSLQHAQPPPQPRKKRPEDFKFGKILGEGSFSTVVLARELATSREYAIKILEKRHIIKENKVPYVTRERDVMSRLDHPFFVKLYFTFQDDEKLYFGLSYAKNGELLKYIRKIGSFDETCTRFYTAEIVSALEYLHGKGIIHRDLKPENILLNEDMHIQITDFGTAKVLSPESKQARANSFVGTAQYVSPELLTEKSACKSSDLWALGCIIYQLVAGLPPFRAGNEYLIFQKIIKLEYDFPEKFFPKARDLVEKLLVLDATKRLGCEEMEGYGPLKAHPFFESVTWENLHQQTPPKLTAYLPAMSEDDEDCYGNYDNLLSQFGCMQVSSSSSSHSLSASDTGLPQRSGSNIEQYIHDLDSNSFELDLQFSEDEKRLLLEKQAGGNPWHQFVENNLILKMGPVDKRKGLFARRRQLLLTEGPHLYYVDPVNKVLKGEIPWSQELRPEAKNFKTFFVHTPNRTYYLMDPSGNAHKWCRKIQEVWRQRYQSHPDAAVQ
activation of GST-S473D-PKBα (Thr308 phosphorylation) by PDK1 associated with GST-PIF (0.5 µg) [1]: greatly activated a GST-A473D-PKBα mutant | phosphorylation of PKBα at Ser473 (P-473 immunoblot) [2]: prevented the phosphorylation of PKBα at Ser473 | phosphorylation of PKBα at Ser473 (P-473 immunoblot) [3]: prevented the phosphorylation of PKBα at Ser473 | phosphorylation of PKBα at Ser473 (P-473 immunoblot) [4]: prevented the phosphorylation of PKBα at Ser473 | phosphorylation of PKBα at Ser473 (P-473 immunoblot) [5]: prevented the phosphorylation of PKBα at Ser473 | phosphorylation of PKBα at Ser473 (P-473 immunoblot) [6]: prevented the phosphorylation of PKBα at Ser473

B2: His-PDK1 (Myc-PDK1 with an N-terminal hexahistidine sequence, from Sf21 insect cells) (protein)
chain: MARTTSQLYDAVPIQSSVVLCSCPSPSMVRTQTESSTPPGIPGGSRQGPAMDGTAAEPRPGAGSLQHAQPPPQPRKKRPEDFKFGKILGEGSFSTVVLARELATSREYAIKILEKRHIIKENKVPYVTRERDVMSRLDHPFFVKLYFTFQDDEKLYFGLSYAKNGELLKYIRKIGSFDETCTRFYTAEIVSALEYLHGKGIIHRDLKPENILLNEDMHIQITDFGTAKVLSPESKQARANSFVGTAQYVSPELLTEKSACKSSDLWALGCIIYQLVAGLPPFRAGNEYLIFQKIIKLEYDFPEKFFPKARDLVEKLLVLDATKRLGCEEMEGYGPLKAHPFFESVTWENLHQQTPPKLTAYLPAMSEDDEDCYGNYDNLLSQFGCMQVSSSSSSHSLSASDTGLPQRSGSNIEQYIHDLDSNSFELDLQFSEDEKRLLLEKQAGGNPWHQFVENNLILKMGPVDKRKGLFARRRQLLLTEGPHLYYVDPVNKVLKGEIPWSQELRPEAKNFKTFFVHTPNRTYYLMDPSGNAHKWCRKIQEVWRQRYQSHPDAAVQ
phosphorylation of PKBα at Ser473 (P-473 immunoblot, 32P peptide mapping) (D978A-Region B peptide): far less effective at inducing this alteration in the specificity of PDK1

B3: wild type GST-PDK1 (protein)
chain: MARTTSQLYDAVPIQSSVVLCSCPSPSMVRTQTESSTPPGIPGGSRQGPAMDGTAAEPRPGAGSLQHAQPPPQPRKKRPEDFKFGKILGEGSFSTVVLARELATSREYAIKILEKRHIIKENKVPYVTRERDVMSRLDHPFFVKLYFTFQDDEKLYFGLSYAKNGELLKYIRKIGSFDETCTRFYTAEIVSALEYLHGKGIIHRDLKPENILLNEDMHIQITDFGTAKVLSPESKQARANSFVGTAQYVSPELLTEKSACKSSDLWALGCIIYQLVAGLPPFRAGNEYLIFQKIIKLEYDFPEKFFPKARDLVEKLLVLDATKRLGCEEMEGYGPLKAHPFFESVTWENLHQQTPPKLTAYLPAMSEDDEDCYGNYDNLLSQFGCMQVSSSSSSHSLSASDTGLPQRSGSNIEQYIHDLDSNSFELDLQFSEDEKRLLLEKQAGGNPWHQFVENNLILKMGPVDKRKGLFARRRQLLLTEGPHLYYVDPVNKVLKGEIPWSQELRPEAKNFKTFFVHTPNRTYYLMDPSGNAHKWCRKIQEVWRQRYQSHPDAAVQ
phosphorylation of PKBα at Ser473 [7]: The region B peptide converts the wild type GST-PDK1, but not the kinase dead GST-PDK1, into a kinase which can phosphorylate Ser473 (data not shown)
